Assay results from patent publication US10428320B2, “Crystal structure of Staphylococcus aureus Autolysin E, method of producing the crystal and its use in screening methods” (J. Stefan Institute, priority 2015, dated 2019).
“Also recorded” adds a separate entry of the source.

Experiments:
[1] = test system: S. aureus purified peptidoglycan; experiment: Degradation of Remazol Brilliant Blue labeled S. aureus peptidoglycan (cell wall substrate), colorimetric; format: biochemical, Staphylococcus aureus; conditions: mutants in comparison with the native enzyme
From the text: • AtlE is 259 amino acid long protein encoded by the SAV2307 gene loci in the genome of S. aureus strain Mu50. The truncated sequences of glucosaminidase domains of AtlE, lacking the first 34 residues and glu AtlA from S1012 onwards, include additional four amino acids (SAAA, i.e. Ser-Ala-Ala-Ala) that belong to the recognition site of TEV protease. The nucleotide sequences were amplified from the genomic DNA of S. aureus Mu50 using KOD Hot Start Polymerase and cloned into pMCSG 7 plasmid in the frame with N-terminal His-Tag as described [Eschenfeldt et al., 2009]. The mutants were prepared by the overlap extension method [Ho et al., 1989]. The proteins were expressed in BL21(DE3) E. coli expression strain grown in YZM5052 auto induction medium. To facilitate the expression of proteins in soluble form, the cells were initially grown at 37° C. When optical density (OD) measured at 600 nm reached the value of 1, the cells were transferred to 25° C. After 16 hours the cells were pelleted by centrifugation (15 minutes at 7000× g), re-suspended in the buffer A ([…] Tris, 0.4 M NaCl, pH 7.5) supplemented with 1 mg/ml of lysozyme, and frozen and disrupted by the freezing thawing cycles and sonication. The proteins were purified from the cell lysate on AKTAxpress FPLC system (GE Healthcare) using two-step purification protocol. The first purification step was Ni^2+-affinity chromatography on HiTrap IMAC FF column (GE Healthcare) equilibrated in buffer A with 10 mM imidazole. […] 2. […] The degradation products were analyzed by mass spectroscopy. A single cleavage between the central NAG-NAM residues should indicate the classic N-acetyl-glucosaminidase activity by generating the NAM-NAG and NAM-NAGred disaccharides, whereas NAMred and NAG-NAM-NAGred would indicate the muraminidase activity. […] 3. Isolation of S. aureus Peptidoglycan • S. aureus cells were grown overnight in Brain Hearth Infusion Broth (BHI) (37° C., 250 rpm) pelleted by centrifugation (15 minutes at 6000× g), washed three times with the 30 mM Tris, 0.4 M NaCl buffer and then re-suspended in the same buffer. After heat inactivation, the insoluble pellet was re-suspended in 4% SDS and incubated 30 minutes at 80° C. After 30 minutes of centrifugation at 40,000× g, the pellet was re-suspended and washed six times in water. Proteins that remained associated with the peptidoglycan were digested overnight by incubation with trypsin (1 mg/ml) in 30 mM Tris, 0.4 M NaCl, 10 mM MgCl2, pH 7.5 buffer. After pelleting (30 minutes at 40000× g) peptidoglycan was treated overnight with 5 ml 40% aqueous hydrogen fluoride to remove teichoic acid, pelleted again (30 minutes at 40000× g) and washed extensively with water. Saturated suspension of the pure peptidoglycan solution in water was stored at −20° C. 4. Biochemical Peptidoglycan Degradation and Labeling with Remazol Brilliant Blue • For the colorimetric assays, peptidoglycan was labeled with Remazol Brilliant Blue as described [Odintsov et al., 2004]. In short, 50 ul of water suspension of Remazol Brilliant Blue labeled peptidoglycan was mixed with 10 ul of 1 M buffer solutions at pH of […] of 4 M NaCl, different amounts of enzymes and filled with water to the final volume […]. The final concentration of buffer and NaCl in the reaction mixture was therefore 100 mM.

[2] = Digestion of synthetic hexa-NAG substrate, products analyzed by mass spectroscopy; format: biochemical; conditions: mass spectroscopy of degradation products
From the text: (§1) • AtlE is 259 amino acid long protein encoded by the SAV2307 gene loci in the genome of S. aureus strain Mu50. The truncated sequences of glucosaminidase domains of AtlE, lacking the first 34 residues and glu AtlA from S1012 onwards, include additional four amino acids (SAAA, i.e. Ser-Ala-Ala-Ala) that belong to the recognition site of TEV protease. The nucleotide sequences were amplified from the genomic DNA of S. aureus Mu50 using KOD Hot Start Polymerase and cloned into pMCSG 7 plasmid in the frame with N-terminal His-Tag as described [Eschenfeldt et al., 2009]. The mutants were prepared by the overlap extension method [Ho et al., 1989]. The proteins were expressed in BL21(DE3) E. coli expression strain grown in YZM5052 auto induction medium. To facilitate the expression of proteins in soluble form, the cells were initially grown at 37° C. When optical density (OD) measured at 600 nm reached the value of 1, the cells were transferred to 25° C. After 16 hours the cells were pelleted by centrifugation (15 minutes at 7000× g), re-suspended in the buffer A ([…] Tris, 0.4 M NaCl, pH 7.5) supplemented with 1 mg/ml of lysozyme, and frozen and disrupted by the freezing thawing cycles and sonication. The proteins were purified from the cell lysate on AKTAxpress FPLC system (GE Healthcare) using two-step purification protocol. […] The degradation products were analyzed by mass spectroscopy. […]

[3] = Digestion of synthetic tetrasaccharide substrate, products analyzed by mass spectroscopy; format: biochemical; conditions: mass spectroscopy of degradation products
From the text: as §1

B1: E138A (protein)
chain: MKKNFKLRISTLLLIVILVVFAVLLIVNETKLFKNDVNYSFDEAVSMQQGKGIVQTKEEDGKFVEANNNEIAKAMTISHKDNDMKYMDITEKVPMSESEVNQLLKGKGILENRGKVFLEAQEKYEVNVIYLVSHALVATGNGKSELAKGIKDGKKRYYNFFGIGAFDSSAVRSGKSYAEKEQWTSPDKAIIGGAKFIRNEYFENNQLNLYQMRWNPENPAQHQYASDIRWADKIAKLMDKSYKQFGIKKDDIRQTYYK
activity against the cell wall substrate (S. aureus peptidoglycan) [1]: abolished activity
activity against the cell wall substrate (S. aureus peptidoglycan) ([1]; listed as E138): zero activity

B2: D167A (protein)
chain: MKKNFKLRISTLLLIVILVVFAVLLIVNETKLFKNDVNYSFDEAVSMQQGKGIVQTKEEDGKFVEANNNEIAKAMTISHKDNDMKYMDITEKVPMSESEVNQLLKGKGILENRGKVFLEAQEKYEVNVIYLVSHALVETGNGKSELAKGIKDGKKRYYNFFGIGAFASSAVRSGKSYAEKEQWTSPDKAIIGGAKFIRNEYFENNQLNLYQMRWNPENPAQHQYASDIRWADKIAKLMDKSYKQFGIKKDDIRQTYYK
activity against the cell wall substrate (S. aureus peptidoglycan) [1]: halved activity

B3: D227A (protein)
chain: MKKNFKLRISTLLLIVILVVFAVLLIVNETKLFKNDVNYSFDEAVSMQQGKGIVQTKEEDGKFVEANNNEIAKAMTISHKDNDMKYMDITEKVPMSESEVNQLLKGKGILENRGKVFLEAQEKYEVNVIYLVSHALVETGNGKSELAKGIKDGKKRYYNFFGIGAFDSSAVRSGKSYAEKEQWTSPDKAIIGGAKFIRNEYFENNQLNLYQMRWNPENPAQHQYASAIRWADKIAKLMDKSYKQFGIKKDDIRQTYYK
activity against the cell wall substrate (S. aureus peptidoglycan) [1]: halved activity

B4: E145A (protein)
chain: MKKNFKLRISTLLLIVILVVFAVLLIVNETKLFKNDVNYSFDEAVSMQQGKGIVQTKEEDGKFVEANNNEIAKAMTISHKDNDMKYMDITEKVPMSESEVNQLLKGKGILENRGKVFLEAQEKYEVNVIYLVSHALVETGNGKSALAKGIKDGKKRYYNFFGIGAFDSSAVRSGKSYAEKEQWTSPDKAIIGGAKFIRNEYFENNQLNLYQMRWNPENPAQHQYASDIRWADKIAKLMDKSYKQFGIKKDDIRQTYYK
activity against the cell wall substrate (S. aureus peptidoglycan) [1]: activity of native enzyme; also recorded: activity equivalent to the native enzyme

B5: Y201A (protein)
chain: MKKNFKLRISTLLLIVILVVFAVLLIVNETKLFKNDVNYSFDEAVSMQQGKGIVQTKEEDGKFVEANNNEIAKAMTISHKDNDMKYMDITEKVPMSESEVNQLLKGKGILENRGKVFLEAQEKYEVNVIYLVSHALVETGNGKSELAKGIKDGKKRYYNFFGIGAFDSSAVRSGKSYAEKEQWTSPDKAIIGGAKFIRNEAFENNQLNLYQMRWNPENPAQHQYASDIRWADKIAKLMDKSYKQFGIKKDDIRQTYYK
activity against the cell wall substrate (S. aureus peptidoglycan) [1]: completely inactive
activity against the cell wall substrate (S. aureus peptidoglycan) ([1]; listed as Y201): zero activity; also recorded: abolished the enzymatic activity

B6: AtlE: recombinant glucosaminidase domain of Autolysin E of S. aureus Mu50, encoded by SAV2307 (protein)
chain: SAAANDVNYSFDEAVSMQQGKGIVQTKEEDGKFVEANNNEIAKAMTISHKDNDMKYMDITEKVPMSESEVNQLLKGKGILENRGKVFLEAQEKYEVNVIYLVSHALVETGNGKSELAKGIKDGKKRYYNFFGIGAFDSSAVRSGKSYAEKEQWTSPDKAIIGGAKFIRNEYFENNQLNLYQMRWNPENPAQHQYASDIRWADKIAKLMDKSYKQFGIKKDDIRQTYYK
cleavage of (NAG)6 [2]: not degraded at all; also recorded: cannot
digestion products / specificity on (NAM-NAG)2red [3]: only NAM-NAGred with Mw of 499.21 Da was found
